# Entries after “also recorded” stand apart in the source; their conditions may differ.
# B1: OMP-52M51: humanized anti-NOTCH1 antibody, plasmid ATCC PTA-9549; heavy chain variable region SEQ ID NO:14, light chain variable region SEQ ID NO:18 (antibody, V domains shown)
# VH: QVQLVQSGAEVKKPGASVKISCKVSGYTLRGYWIEWVRQAPGKGLEWIGQILPGTGRTNYNEKFKGRVTMTADTSTDTAYMELSSLRSEDTAVYYCARFDGNYGYYAMDYWGQGTTVTVSSA
# VL: SGVDSQAVVTQEPSLTVSPGGTVTLTCRSSTGAVTTSNYANWFQQKPGQAPRTLIGGTNNRAPGVPARFSGSLLGGKAALTLSGAQPEDEAEYYCALWYSNHWVFGGGTKLTVLG
# modifications: 52M51-H4 heavy chain variable region amino acid sequence without putative signal sequence; 52M51-L3 light chain variable region amino acid sequence without putative signal sequence
# Experiments:
# [1] = test system: NOTCH1.ICD; test: NOTCH1.ICD IHC of treated OMP-B40 tumors; assay type: in vivo, NOD/SCID mice; conditions: OMP-B40 tumors from treated mice; FIGS. 3C and D
# Protocol: NOTCH1.ICD Immunohistochemistry (IHC) staining was performed with a tyramide signal amplification (TSA) modification of standard IHC protocol. Slides were de-waxed and rehydrated then subjected to antigen retrieval in DAKO TRS solution (DAKO # S1699) under heat and pressure in a BioCare Decloaker benchtop pressure cooker. Endogenous peroxidase was blocked with 6% H2O2 in phosphate buffered saline, then protein block was applied (CAS block, Invitrogen #008120). Primary antibody was incubated overnight at 4° C. at an appropriate dilution. Sections were then incubated with DAKO rabbit HRP polymer (DAKO # K4011), followed by FITC labeled TSA substrate (Perkin Elmer # NEL701001KT). FITC was then detected with HRP-conjugated anti-FITC antibodies (Rockland # RL700-103-096), and DAB substrate (DAKO # K3468) added to visualize the antibody-detection complex.
# OMP-B40 tumors were harvested from control and OMP-52M51-treated mice with or without paclitaxel. IHC analysis was performed on tumors from OMP-B40 to detected the activated form of NOTCH1 using a rabbit polyclonal antibody that specifically recognizes NOTCH1-ICD. […] Thus, the NOTCH1-ICD IHC assay serves as key biomarker for OMP-52M51 and can be used to monitor pharmacodynamic response and NOTCH pathway activity in tumor tissues.
# [2] = test system: OMP-B40 breast tumors; test: Tumorigenicity of cells from treated OMP-B40 tumors; assay type: in vivo; conditions: 1000 cells from tumors treated 15 mg/kg twice per week, injected into 10 mice, no further treatment; control 10 of 10
# Protocol: The effect of NOTCH1 treatment on cancer stem cell frequency was also analyzed in OMP-B40 tumors. OMP-B40 breast tumors were treated with a either a control mAb or OMP-52M51 (15 mg/kg twice per week), isolated, dissociated into single cells and the human tumor cells in the xenograft were purified by negative selection with anti-mouse antibodies. One thousand tumor cells from the control and OMP-52M51 treated tumors were injected into 10 mice each. Tumors were allowed to grow for 92 days without further treatment. Tumor volumes on day 92 are shown in FIG. 4 for the control group (black squares) and OMP-52M51 group (gray circles).
# [3] = test system: OMP-LU33 lung tumors; test: OMP-LU33 lung tumor, sensitivity to treatment; assay type: in vivo; conditions: no NOTCH1-ICD staining; data not shown
# [4] = test system: OMP-C11 tumor cells; test: OMP-C11 xenograft, tumor growth; assay type: in vivo, mice; conditions: 15 mg/kg twice weekly IP, Day 54; H-score approximately 34
# Protocol: Twenty thousand OMP-C11 tumor cells were resuspended in injection media composed of PBS and 0.5× matrigel and injected subcutaneously into mice. The N1.ICD IHC H-score of OMP-C11 cells is approximately 34. The OMP-C11 cells are heterozygous mutant for FBW7. Treatment was initiated 1 day after tumor cell injection and continued for the duration of the experiment. The mice received either 15 mg/kg LZ1 control antibody or OMP-52M51 anti-NOTCH1 antibody twice weekly, either as a single therapy or in combination with 7.5 mg/kg Irinotecan administered once weekly. The antibodies and irinotecan were administered by IP injection. Tumor volume is shown as Mean±SEM, n=10 animals per group. OMP-52M51 alone reduced tumor growth to 53% of the tumor growth observed in the control antibody treated group (Day 54, p=0.046).
molecule,measurement,setting,value
B1,NOTCH1.ICD accumulation detected by IHC,[1],reduction in NOTCH1.ICD; also recorded: blocks NOTCH-ICD accumulation in the nucleus; also recorded: blocks NOTCH1.ICD accumulation
same,mice with detectable tumor growth at day 92,[2],2 out of 10
same,sensitivity to treatment,[3],did not show significant sensitivity
same,tumor growth as % of control antibody treated group,[4],53%
